US20130281374A1

Molecular target: T1, human GIP receptor (human), P48546
T1 chain: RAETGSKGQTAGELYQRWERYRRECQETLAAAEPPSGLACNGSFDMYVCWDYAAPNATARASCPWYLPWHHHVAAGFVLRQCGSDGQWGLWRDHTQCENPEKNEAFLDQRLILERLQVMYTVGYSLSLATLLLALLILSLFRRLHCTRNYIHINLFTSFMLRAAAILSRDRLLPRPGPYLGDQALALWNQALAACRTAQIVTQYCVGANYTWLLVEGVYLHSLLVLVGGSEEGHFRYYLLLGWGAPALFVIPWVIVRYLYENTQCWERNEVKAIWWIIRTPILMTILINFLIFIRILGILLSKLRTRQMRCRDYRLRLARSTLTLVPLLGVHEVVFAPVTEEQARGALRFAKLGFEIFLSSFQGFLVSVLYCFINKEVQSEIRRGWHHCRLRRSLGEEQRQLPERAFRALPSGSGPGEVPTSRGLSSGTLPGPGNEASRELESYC
Experiment: 125I-GIP displacement, HEK-GIPR membranes

B1: 0601GIP4843 (peptide)
peptide: HGEGTLISDYSIAMDKIHQQDFVNWLLAQKPKKIRYS
modifications: not checked
B1 was tested, and the % Inh 10 nM was 3%.
